Fewer inactive variants are shown than the library holds.
B1: TPR 5TU (parent)
chain: GGAUCUUCUCGAUCUAACAAAAAAGACAAAUCUGCCACAAAGCUUGAGAGCAUCUUCGGAUGCAGAGGCGGCAGCCUUCGGUGGCGCGAUAGCGCCAACGUUCUCAACUAUGACACGCAAAACGCGUGCUCCGUUGAAUGGAGUUUAUCAUG

Variants of: B1
Assay: polymerase ribozyme fitness, log enrichment relative to wild type (log ratio); higher = more active; in vitro selection for triplet polymerase activity
Procedure, shortened: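 Each subunit of a heterodimeric triplet polymerase ribozyme was mutagenized into a library by PCR, transcribed, and subjected to one round of in vitro selection, run in triplicate. Libraries were annealed with a biotinylated primer, the partner subunit and triplets, incubated frozen at −7 °C, and extended constructs were gel-excised, captured on streptavidin beads and recovered by RT-PCR. Input and output libraries were sequenced on Illumina, keeping genotypes with ≥10 input reads and ≥1 read per output. Fitness is log base 2 of genotype enrichment divided by wild-type enrichment, from inverse-variance-weighted replicate averages.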

Variant | polymerase ribozyme fitness (log ratio)
A22U A28U U45G G50U C103G | ≤ -4.2
A22U C32G U134C | ≤ -4.2
A22U A29G G70A | ≤ -4.2
A23C A29C C38U C57G A64C G84U | ≤ -4.2
A22U C57A C96G A97U C118G A119C | -2.85
A23G A49U C51U U53A A60G U61A G71U A73G C85A C87A C105G | ≤ -4.2
A22C C38A U44G C75A G84A G117A U135A U151G | ≤ -4.2
A22U G59A | -0.47
A22U G133C | -1.46
A22C U55G G67A U78A C93G C99A C149G | ≤ -4.2
A22U C54G C95U | -2.06
A23C A29C U31G U33C C95U C96U A107U U127C A138C | ≤ -4.2
A22U G59A A66U G86A A120G A138G | ≤ -4.2
A22C U61C G80A A119U C125A | -2.69
A23C C93A | -3.87
A22G A40G A52C C75U C99A A107G C108U U134A | ≤ -4.2
A22U C75G | -3.65
A22U A47U A49G G133C A142U | ≤ -4.2
A22C G84A G136C C149A | ≤ -4.2
A22G G124A | 0.539
A23C A24G A28C C63U G67A A121U U144A | ≤ -4.2
A22G C85U C95G U135G | -3.76
A22U C85A | -0.394
A22U A52G A91C U135G | ≤ -4.2

Variant | polymerase ribozyme fitness (log ratio)
A23G A39U A47C U53G G86C A106G | ≤ -4.2
A22U U55A A66C U77A C87A | ≤ -4.2
A22G C108G C123G A150G | ≤ -4.2
A22G A113C | -2.12
A23G A52C A98U | -3.98
A22U A37C G83C C114G | -3.92
A22U U135C | -1.64
A23C U31C C99U C123U U134C | ≤ -4.2
A22G A28C U33G C93A G94C C95U A121U | ≤ -4.2
A23G A40U A66C U109G U111G C149U | ≤ -4.2
A22U U55A | -0.43
A22C C114A | -3.5
A23C A49G C93U U148C | ≤ -4.2
A23C C114G | ≤ -4.2
A23C A30C G50A A66G C96A A98U G128C | ≤ -4.2
A23G C36A C105A A107G U145A | ≤ -4.2
A22G U55G C57U G84U C85A | -0.696
A22C C76A A89G C95G | -4.19
A22U C69G C75U C93U U101C U127A | ≤ -4.2
A22C C54U G84U U104G C114G G133U | ≤ -4.2
A22G A29U G50A U56G C87U C118U | ≤ -4.2
A22U G58C G92U G124C | -0.925
A23C C43A C54U A73U C99G | ≤ -4.2
A23G A40C G81A U145C | -3.98

Variant | polymerase ribozyme fitness (log ratio)
A22U C87A | -4.14
A22U C87U | 0.455
A22U C54U | 0.174
A22U U134A | -2.01
A22U C54U G81A G83A U90A C95U G141C | ≤ -4.2
A22U G46A C79G G80U G92A A150C | ≤ -4.2
A22U G86A C93G C99A A138C | ≤ -4.2
A23G A64G G81A C108A G124U G143U | ≤ -4.2
A22U A97G A122G | 0.332
A22G A41C G50A C95U U101G | -1.78
A22U U31G C54G C85U U146C | -0.611
A22U A29G A150G | ≤ -4.2
A22U A37G A49C G62U C75G C76A G81U C85G G128C | ≤ -4.2
A23C C36U A60C G86A A121U | ≤ -4.2
A22C G50A U55G U77C G94A | -4.04
A22U C108U | -2.85
A22C C38U C69U C85U | -1.31
A22U G81A A106C G128A U139C | -3.92
A22U C57G G58A C114G | -2.5
A23C C32A U56A A60G C103A A110G G112C | ≤ -4.2
A22C U61A G88A A107C A110C C123G G140A | ≤ -4.2
A23C C27G U61A U77A A91U G136C | ≤ -4.2
A22U G92A C95A C105U | -3.63
A22U G58A A60C U111A | ≤ -4.2

Variant | polymerase ribozyme fitness (log ratio)
A22G C54U C85U C116G | 1.12
A22G A41G A120G G141U | 1.45
A22U G86C | -3.34
A23C G88U U144G | ≤ -4.2
A22G A40G A41C C57U A107U A120U | ≤ -4.2
A22U U56G | -0.902
A22U U102G | -2.64
A23C C76U C87A | ≤ -4.2
A22U C87U G141U | 1.15
A22U A26G A28C A37U U56A C96U A98U | ≤ -4.2
A22U C54U G92U A147U | 0.944
A22U C96G | -0.148
A22U C96A | -0.026
A22G U33G | -3.24
A22U C114A | -3.29
A23C G25A U55A U61G G68A G92U A97U G124A G128C | ≤ -4.2
A22U G126A | 1.07
A22U U82A C96U | 0.375
A22C U44A C87U C103U | ≤ -4.2
A22C C27U A52C | -2.64
A22U G88U C116A A119U | -4.1
A23C C95U | -4.12
A23C C32U A64G G81A C87G C95U C96A A97G A138C G141U | ≤ -4.2
A22U A97G | 0.0508

Variant | polymerase ribozyme fitness (log ratio)
A23G A26U C54A U90G A91G | ≤ -4.2
A22U C149U | 0.0648
A23G C27U A29C C32A C36G C85U C95A U127G | -4.14
A23C A28C G46A U55A C96U | ≤ -4.2
A22U C69A A91U | ≤ -4.2
A22G A91U C95U U109C A137U | ≤ -4.2
A22U A26G A49U U102C A138G U144A | ≤ -4.2
A22C C27U G50C G80U U144G | ≤ -4.2
A22U C95A C96A C99U | -1.54
A22U A49C C69G G70C U101A | ≤ -4.2
A22U U56A G84A G136C | -3.75
A23C C27U A30G C93G U101A U104G A107U | ≤ -4.2
A22G A29U U77C C85G C95U C103U C114G C125U | ≤ -4.2
A22U A26C U45A G48U U82G C87G C129G | ≤ -4.2
A23G A30G A52U C116U C132U | ≤ -4.2
A22U G86U A120U | -1.56
A22U G34A G62C G68C C96A | ≤ -4.2
A22U A115C | -0.374
A22G U130A | -1.59
A23C C54U U55A G71A A122G | ≤ -4.2
A22C U53A C57U G100A A119G A142C G152A | ≤ -4.2
A23G A40G G42C | ≤ -4.2
A22U A28G | -3.35
A22U U55A A115C C123U U130G | -2.84

Variant | polymerase ribozyme fitness (log ratio)
A22G U55A A89C | -0.257
A23C C87G | ≤ -4.2
A23C C87U | -3.89
A22U G88C A147C | -4.19
A23C C38A C51U U55C A73G G92U C131U A138C | ≤ -4.2
A23C U31G C108G A115G | ≤ -4.2
A22G A52U G84A C123A | -2.11
A22U C57A | -0.719
A22U A39U C57U G59A U101G U148C A150C | ≤ -4.2
A22C C57A A106G G141C | -0.358
A22C U55A A97G G143C | -3.02
A23G A28G A39U A40U U44A U61A U78G C85U U151G | ≤ -4.2
A23C C93U G141U | ≤ -4.2
A22U G46C C114U | -3.67
A23C G59A G92U U104C A113C C123U G124A | ≤ -4.2
A22C G34C U55G A91C G92U | ≤ -4.2
A23G C35A A142G | -3.78
A22G C108U | -4.08
A22G C32U A37G A41C G71A C95U C96G U139C | ≤ -4.2
A22U U56A A64G A122U C123G A150G | ≤ -4.2
A22G U33C C35U A66C | ≤ -4.2
A22C C87U | -0.775
A23C A39C C76A A97G G143C | -3.82
A23G A40G G50U C76A G84C | ≤ -4.2

Variant | polymerase ribozyme fitness (log ratio)
A22U U31C G81C A89C | 1.01
A22U A30G G46C G50C A52C U55G G83A G94A | ≤ -4.2
A22G C27U A47U U56G C57G U77A C93A G143A | ≤ -4.2
A23C G58A C87U A91U | ≤ -4.2
A22U G50U C54U A66C A91G G92U A138G | ≤ -4.2
A22U A39U A40C A66C C105U | ≤ -4.2
A22G C132G | -3.69
A22G C132U | -0.512
A22C C27A U56A C85U C93A C99G A138U | ≤ -4.2
A22U C32A C36A C57U C96G C116U U139G | ≤ -4.2
A22G C54U G58A G59A C103G | -1.91
A22U U56A C93G A98G C108A C114G U151A | ≤ -4.2
A22U A30C G81A C116G | -3.8
A22C C27G C76U C96G G140U | ≤ -4.2
A22U C123G | -0.0344
A22C U53A U56A A73G | -1.97
A22C U33C G88A A97C C131G | ≤ -4.2
A22G G58C A119U A122U | 0.574
A23C A26U U33G C76A U101G U145G | ≤ -4.2
A22U G94C C95G C96A A122U | ≤ -4.2
A22U C27U C36U A98U | -3.64
A22C U78C A98G U102G U151G | ≤ -4.2
A22C U144G | 0.903

Source: the RNAGym collection of RNA variant scans (doi:10.1073/pnas.2313332121)
